# Reference: US20050282743A1, “Molecular interactions in cells” (Arbor Vita Corporation, priority 2001, published 2005)
# Ends that are not written are not given here. Peptide text beside a SMILES is read from it. * marks the point of attachment. Biotin = O=C1N[C@H]2[C@H](CS[C@H]2CCCCC(=O)*)N1
# How the values were obtained:
# Assay in all cases: G' assay (10 uM PL peptide), results of TABLE 7 and TABLE 12
# Assay type in all cases: binding
# [1] = biological target: T1, PDZ protein (GST-PDZ fusion) (Homo sapiens, UniProt Q9NY99); conditions: PDZ Syntrophin gamma-2, PDZ Domain 1
# T1 construct: made in house; host or cells: E. coli (DH5alpha, BL21 or JM109)
# T1 sequence (Q9NY99 1-539): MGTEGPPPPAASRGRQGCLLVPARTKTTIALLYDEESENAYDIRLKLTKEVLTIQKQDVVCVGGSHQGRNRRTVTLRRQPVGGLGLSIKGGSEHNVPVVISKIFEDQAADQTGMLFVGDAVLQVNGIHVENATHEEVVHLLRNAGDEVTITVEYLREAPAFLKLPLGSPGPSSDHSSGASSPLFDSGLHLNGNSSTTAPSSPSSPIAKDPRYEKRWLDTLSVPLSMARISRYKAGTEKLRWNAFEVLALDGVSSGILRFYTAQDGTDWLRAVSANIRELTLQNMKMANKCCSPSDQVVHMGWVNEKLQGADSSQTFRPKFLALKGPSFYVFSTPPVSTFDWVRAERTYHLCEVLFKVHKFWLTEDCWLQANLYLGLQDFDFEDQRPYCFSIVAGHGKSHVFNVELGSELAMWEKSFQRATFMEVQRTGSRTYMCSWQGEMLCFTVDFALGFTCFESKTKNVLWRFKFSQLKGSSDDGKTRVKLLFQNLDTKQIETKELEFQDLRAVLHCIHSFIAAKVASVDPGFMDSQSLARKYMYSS
# Procedure, shortened: (§1)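 Binding classes derive from A450 nm of bound biotin-tagged PL peptide. A score of 5 needs A450 above 4 in more than two repeats.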
# [2] = biological target: T2, PDZ protein (GST-PDZ fusion) (Homo sapiens, UniProt P50479); conditions: PDZ LIM RIL, PDZ Domain 1
# T2 construct: made in house; host or cells: E. coli (DH5alpha, BL21 or JM109)
# T2 sequence (P50479 1-330): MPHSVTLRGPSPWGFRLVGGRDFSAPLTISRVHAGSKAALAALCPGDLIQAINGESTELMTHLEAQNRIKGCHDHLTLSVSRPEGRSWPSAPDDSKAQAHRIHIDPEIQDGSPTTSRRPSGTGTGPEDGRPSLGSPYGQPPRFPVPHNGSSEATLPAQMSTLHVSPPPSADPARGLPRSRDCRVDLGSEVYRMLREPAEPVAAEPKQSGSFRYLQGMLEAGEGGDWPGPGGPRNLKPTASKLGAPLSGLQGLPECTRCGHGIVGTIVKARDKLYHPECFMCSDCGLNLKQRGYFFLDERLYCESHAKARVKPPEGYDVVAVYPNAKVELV
# Procedure, shortened: as §1
# [3] = biological target: T3, PDZ protein (GST-PDZ fusion) (Homo sapiens, UniProt Q96JY6); conditions: PDZ LIM-Mystique, PDZ Domain 1
# T3 construct: made in house; host or cells: E. coli (DH5alpha, BL21 or JM109)
# T3 sequence (Q96JY6 1-352): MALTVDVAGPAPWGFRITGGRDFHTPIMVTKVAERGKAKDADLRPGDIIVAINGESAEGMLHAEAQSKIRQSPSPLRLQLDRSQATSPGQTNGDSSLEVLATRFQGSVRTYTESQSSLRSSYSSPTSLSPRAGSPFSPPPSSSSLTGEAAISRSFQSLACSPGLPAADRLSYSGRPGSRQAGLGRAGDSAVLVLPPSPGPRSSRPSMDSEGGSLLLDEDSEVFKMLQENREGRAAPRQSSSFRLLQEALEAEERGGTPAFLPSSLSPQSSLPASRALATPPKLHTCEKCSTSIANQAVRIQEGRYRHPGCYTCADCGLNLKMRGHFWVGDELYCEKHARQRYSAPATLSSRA
# Procedure, shortened: as §1
# [4] = biological target: T4, PDZ protein (GST-PDZ fusion) (Homo sapiens, UniProt Q9HD26); conditions: PDZ PIST, PDZ Domain 1
# T4 construct: made in house; host or cells: E. coli (DH5alpha, BL21 or JM109)
# Procedure, shortened: as §1
# [5] = biological target: T5, PDZ protein (GST-PDZ fusion) (Homo sapiens, UniProt Q07157)
# T5 construct: made in house; host or cells: E. coli (DH5alpha, BL21 or JM109)
# Procedure, shortened: as §1
# [6] = biological target: T6, PDZ protein (GST-PDZ fusion) (Homo sapiens, UniProt O14908); conditions: PDZ TAX IP2, PDZ Domain 1
# T6 construct: made in house; host or cells: E. coli (DH5alpha, BL21 or JM109)
# T6 sequence (O14908 1-333): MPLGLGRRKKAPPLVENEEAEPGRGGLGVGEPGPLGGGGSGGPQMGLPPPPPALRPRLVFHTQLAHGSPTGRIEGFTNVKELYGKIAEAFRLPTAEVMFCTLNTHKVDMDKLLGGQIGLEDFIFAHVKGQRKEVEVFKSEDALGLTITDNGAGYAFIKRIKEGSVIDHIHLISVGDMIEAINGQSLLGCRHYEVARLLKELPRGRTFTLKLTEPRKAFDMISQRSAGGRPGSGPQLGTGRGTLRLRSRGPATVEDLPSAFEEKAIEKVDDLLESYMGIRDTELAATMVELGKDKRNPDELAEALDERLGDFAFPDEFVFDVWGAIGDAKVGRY
# Procedure, shortened: as §1
# T5 sequence (Q07157 whole entry, the tested form may be a part): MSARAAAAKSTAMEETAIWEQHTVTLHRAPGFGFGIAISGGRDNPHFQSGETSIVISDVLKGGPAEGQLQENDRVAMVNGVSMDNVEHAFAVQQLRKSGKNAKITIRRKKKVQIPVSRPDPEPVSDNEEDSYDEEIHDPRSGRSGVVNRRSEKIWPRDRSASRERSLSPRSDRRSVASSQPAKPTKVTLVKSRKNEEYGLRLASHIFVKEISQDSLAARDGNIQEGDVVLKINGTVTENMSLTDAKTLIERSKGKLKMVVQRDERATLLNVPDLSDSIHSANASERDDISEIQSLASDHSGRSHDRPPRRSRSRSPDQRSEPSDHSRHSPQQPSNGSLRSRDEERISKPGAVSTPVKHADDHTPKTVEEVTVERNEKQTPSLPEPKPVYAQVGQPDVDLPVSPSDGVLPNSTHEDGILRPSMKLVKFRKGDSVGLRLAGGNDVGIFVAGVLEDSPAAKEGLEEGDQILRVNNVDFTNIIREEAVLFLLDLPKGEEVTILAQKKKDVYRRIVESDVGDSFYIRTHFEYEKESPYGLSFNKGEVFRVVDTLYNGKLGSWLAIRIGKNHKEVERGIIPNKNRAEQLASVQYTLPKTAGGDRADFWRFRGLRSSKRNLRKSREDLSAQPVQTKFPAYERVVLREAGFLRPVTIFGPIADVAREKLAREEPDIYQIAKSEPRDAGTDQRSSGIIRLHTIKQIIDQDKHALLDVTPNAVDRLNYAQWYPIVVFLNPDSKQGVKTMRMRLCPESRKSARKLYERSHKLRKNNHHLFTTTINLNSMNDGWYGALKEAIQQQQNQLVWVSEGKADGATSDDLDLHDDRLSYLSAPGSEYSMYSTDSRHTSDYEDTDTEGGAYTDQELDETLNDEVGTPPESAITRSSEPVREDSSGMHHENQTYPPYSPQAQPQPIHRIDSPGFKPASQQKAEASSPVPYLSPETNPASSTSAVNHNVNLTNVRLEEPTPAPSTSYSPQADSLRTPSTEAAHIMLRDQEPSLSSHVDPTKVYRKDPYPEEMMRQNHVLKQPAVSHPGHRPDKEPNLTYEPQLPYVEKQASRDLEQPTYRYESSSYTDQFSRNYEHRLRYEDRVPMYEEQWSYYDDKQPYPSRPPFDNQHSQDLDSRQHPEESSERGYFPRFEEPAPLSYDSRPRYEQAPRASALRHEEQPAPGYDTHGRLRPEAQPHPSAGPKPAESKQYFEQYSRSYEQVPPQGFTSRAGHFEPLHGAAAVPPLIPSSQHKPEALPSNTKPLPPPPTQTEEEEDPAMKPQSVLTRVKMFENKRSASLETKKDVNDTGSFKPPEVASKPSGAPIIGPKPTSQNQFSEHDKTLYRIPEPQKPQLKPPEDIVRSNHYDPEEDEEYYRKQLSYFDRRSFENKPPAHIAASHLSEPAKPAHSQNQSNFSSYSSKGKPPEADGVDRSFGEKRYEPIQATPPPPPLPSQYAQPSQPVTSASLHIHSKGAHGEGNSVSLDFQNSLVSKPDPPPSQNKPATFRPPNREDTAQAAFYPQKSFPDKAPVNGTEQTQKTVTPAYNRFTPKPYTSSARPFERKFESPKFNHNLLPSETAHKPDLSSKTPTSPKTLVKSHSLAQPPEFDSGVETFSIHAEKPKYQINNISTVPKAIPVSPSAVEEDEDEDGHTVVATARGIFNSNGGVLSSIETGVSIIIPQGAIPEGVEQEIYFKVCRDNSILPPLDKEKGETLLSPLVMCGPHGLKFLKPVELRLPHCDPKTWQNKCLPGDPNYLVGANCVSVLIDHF
compound,measurement,setting,value
CC(C)C[C@H](NC(=O)[C@H](C)NC(=O)[C@@H](NC(=O)[C@H](CCC(=O)O)NC(=O)[C@H](CCCNC(=N)N)NC(=O)[C@H](CCCNC(=N)N)NC(=O)CNC(=O)[C@H](CCC(N)=O)NC(=O)[C@H](CC(C)C)NC(=O)[C@H](CCCNC(=N)N)NC(=O)CNC(=O)CNC(=O)[C@H](CCCNC(=N)N)NC(=O)[C@H](C)NC(=O)[C@H](CO)NC(=O)[C@H](CCCNC(=N)N)NC(=O)CNC(=O)CNC(=O)[C@H](C)NC(=O)[C@H](C)NC(=O)CCCC[C@@H]1SC[C@@H]2NC(=O)N[C@@H]21)[C@@H](C)O)C(=O)O [HPV E6 33 (modified)] (Biotin-AAGGRSARGGRLQGRRETAL-OH; C-terminus assumed),Classification,[1],1 (A450 nm 0-1)
VHDAESSDEDGYDWGPATDL (Biotin-VHDAESSDEDGYDWGPATDL) [zona occludens 3 (ZO-3)],Classification,[2],2 (A450 nm 1-2)
same,Classification,[3],2 (A450 nm 1-2)
CC[C@H](C)[C@H](NC(=O)[C@H](CO)NC(=O)[C@H](CCC(=O)O)NC(=O)[C@H](Cc1ccc(O)cc1)NC(=O)[C@H](CC(=O)O)NC(=O)[C@H](CC(N)=O)NC(=O)[C@H](CCC(=O)O)NC(=O)[C@H](CCCCN)NC(=O)CCCC[C@@H]1SC[C@@H]2NC(=O)N[C@@H]21)C(=O)N[C@@H](CO)C(=O)N[C@@H](CC(=O)O)C(=O)N[C@@H](CC(C)C)C(=O)N[C@@H](CCC(N)=O)C(=O)N[C@@H](CCC(N)=O)C(=O)NCC(=O)N[C@@H](CCCNC(=N)N)C(=O)N[C@@H](CC(=O)O)C(=O)N[C@H](C(=O)N[C@H](C(=O)N[C@@H](CCCNC(=N)N)C(=O)N[C@@H](CC(C)C)C(=O)O)[C@@H](C)O)[C@@H](C)CC [PAG] (Biotin-KENDYESISDLQQGRDITRL-OH; C-terminus assumed),Classification,[4],1 (A450 nm 0-1)
CC(C)C[C@H](NC(=O)[C@H](C)NC(=O)[C@@H](NC(=O)[C@@H](NC(=O)[C@H](Cc1c[nH]cn1)NC(=O)[C@H](CC(C)C)NC(=O)CNC(=O)[C@H](CCC(N)=O)NC(=O)CNC(=O)CNC(=O)[C@H](C)NC(=O)[C@H](C)NC(=O)[C@H](CCCNC(=N)N)NC(=O)[C@H](C)NC(=O)[C@H](CO)NC(=O)[C@H](CC(=O)O)NC(=O)[C@H](CC(=O)O)NC(=O)[C@H](Cc1c[nH]c2ccccc12)NC(=O)[C@H](C)NC(=O)CCCC[C@@H]1SC[C@@H]2NC(=O)N[C@@H]21)C(C)C)[C@@H](C)O)C(=O)O [LPAP] (Biotin-AWDDSARAAGGQGLHVTAL-OH; C-terminus assumed),Classification,[4],1 (A450 nm 0-1)
CC[C@H](C)[C@H](NC(=O)[C@H](CCC(N)=O)NC(=O)[C@@H](NC(=O)[C@H](Cc1c[nH]cn1)NC(=O)[C@H](CCC(N)=O)NC(=O)[C@H](CC(=O)O)NC(=O)[C@H](CCC(=O)O)NC(=O)[C@H](CC(=O)O)NC(=O)[C@H](Cc1ccccc1)NC(=O)[C@@H]1CCCN1C(=O)[C@H](CCC(=O)O)NC(=O)[C@H](CC(N)=O)NC(=O)[C@H](CCC(=O)O)NC(=O)[C@@H]1CCCN1C(=O)[C@H](CC(=O)O)NC(=O)[C@H](CO)NC(=O)[C@H](CC(=O)O)NC(=O)CCCC[C@@H]1SC[C@@H]2NC(=O)N[C@@H]21)[C@@H](C)O)C(=O)N[C@H](C(=O)N[C@@H](CCCCN)C(=O)N[C@H](C(=O)O)C(C)C)[C@@H](C)O [PTEN],Classification,[4],1 (A450 nm 0-1)
QATSRNGHSARQHVVADTEL (Biotin-QATSRNGHSARQHVVADTEL) [CD34],Classification,[2],1 (A450 nm 0-1)
CC[C@H](C)[C@H](NC(=O)[C@H](CC(=O)O)NC(=O)[C@H](CCC(=O)O)NC(=O)[C@H](CCCNC(=N)N)NC(=O)[C@@H](NC(=O)CCCC[C@@H]1SC[C@@H]2NC(=O)N[C@@H]21)[C@@H](C)O)C(=O)N[C@@H](Cc1ccc(O)cc1)C(=O)N[C@H](C(=O)N[C@@H](CC(N)=O)C(=O)N[C@@H](Cc1ccc(O)cc1)C(=O)N1CCC[C@H]1C(=O)N[C@H](C(=O)N[C@@H](Cc1ccccc1)C(=O)N[C@@H](CO)C(=O)N[C@@H](CCCNC(=N)N)C(=O)N[C@@H](CCCNC(=N)N)C(=O)N1CCC[C@H]1C(=O)N[C@@H](CCCCN)C(=O)N[C@H](C(=O)N[C@@H](CCCNC(=N)N)C(=O)N[C@H](C(=O)O)C(C)C)[C@@H](C)O)[C@@H](C)O)C(C)C [DNAM-1] (Biotin-TREDIYVNYPTFSRRPKTRV-OH; C-terminus assumed),Classification,"[5]; PDZ ZO-1, PDZ Domain 1",2 (A450 nm 1-2)
same,Classification,[4],4 (A450 nm 3-4)
PPATPSPRLALPAHHNATRL (Biotin-PPATPSPRLALPAHHNATRL) [Na+/Pi cotransporter 2],Classification,[4],1 (A450 nm 0-1)
same,Classification,[1],1 (A450 nm 0-1)
GPVPGEPAKPKTSAHHATFV (Biotin-GPVPGEPAKPKTSAHHATFV),Classification,"[5]; PDZ ZO-1, PDZ Domain 1",1 (A450 nm 0-1)
same,Classification,[4],1 (A450 nm 0-1)
CC(C)C[C@H](NC(=O)[C@H](CC(C)C)NC(=O)[C@@H](NC(=O)[C@H](CC(=O)O)NC(=O)CCCC[C@@H]1SC[C@@H]2NC(=O)N[C@@H]21)[C@@H](C)O)C(=O)N[C@@H](CC(C)C)C(=O)N[C@H](C(=O)N[C@@H](CCC(=O)O)C(=O)N[C@@H](CC(N)=O)C(=O)N[C@@H](CCC(=O)O)C(=O)NCC(=O)N[C@@H](CC(=O)O)C(=O)N[C@@H](CCCCN)C(=O)N[C@H](C(=O)N[C@@H](CCC(=O)O)C(=O)N[C@@H](CCC(=O)O)C(=O)N[C@@H](CCC(N)=O)C(=O)N[C@H](C(=O)N[C@@H](CO)C(=O)N[C@@H](Cc1ccc(O)cc1)C(=O)N[C@H](C(=O)O)C(C)C)C(C)C)[C@@H](C)O)[C@@H](C)O [5H2B_HUMAN] (Biotin-DTLLLTENEGDKTEEQVSYV-OH; C-terminus assumed),Classification,[4],1 (A450 nm 0-1)
LASKSAEEGKQIPDSLSTDL (Biotin-LASKSAEEGKQIPDSLSTDL) [Dock2],Classification,[2],1 (A450 nm 0-1)
same,Classification,[3],1 (A450 nm 0-1)
CKR5_HUMAN (ERASSVYTRSTGEQEISVGL),Classification,[6],1 (A450 nm 0-1)
A2AA_HUMAN (modified) (Biotin-HDFRRAFKKILARGDRKRIV; not fully specified),Classification,"[5]; PDZ ZO-1, PDZ Domain 2",4 (A450 nm 3-4)
same,Classification,[3],1 (A450 nm 0-1)
CC[C@H](C)[C@H](NC(=O)[C@H](CCCCN)NC(=O)[C@@H](NC(=O)[C@H](CO)NC(=O)[C@@H]1CCCN1C(=O)[C@H](Cc1ccccc1)NC(=O)[C@@H](NC(=O)[C@@H](NC(=O)[C@H](CCCNC(=N)N)NC(=O)[C@H](CCC(=O)O)NC(=O)[C@H](CC(C)C)NC(=O)[C@H](CC(C)C)NC(=O)[C@H](CC(C)C)NC(=O)[C@@H](NC(=O)CNC(=O)[C@@H](NC(=O)CCCC[C@@H]1SC[C@@H]2NC(=O)N[C@@H]21)C(C)C)[C@@H](C)O)C(C)C)[C@@H](C)CC)C(C)C)C(=O)N[C@@H](C)C(=O)N[C@H](C(=O)N[C@@H](CC(C)C)C(=O)N[C@H](C(=O)O)C(C)C)[C@@H](C)O [Adenovirus E4 Type9],Classification,"[5]; PDZ ZO-1, PDZ Domain 1, PL peptide 10 uM",2 (A450 nm 1-2)
same,Classification,[4]; PL peptide 10 uM,1 (A450 nm 0-1)
